This experiment has as its target T1, HLA-DR15 (DRB1*15:02) (human).
T1 construct: whole, on cells; Expressed on mouse fibroblast L-cells (L-DR15) or on donor APCs; also called L-DR15
The experiment in a line: concluded from IFN-gamma ELISPOT with peptide-pulsed L-DR15 cells and HLA-blocking mAbs; no direct binding assay. The method, then:
The immune response of Th cells to APCs pulsed with peptides and proteins were assessed by IFN-gamma ELISPOT assays (Human IFN-gamma ELISPOT kit, BD Biosciences) as described previously (Tomita Y, et al. Cancer Sci; 102: 697-705.). Briefly, the frequency of peptide-specific CD4⁺ T cells producing IFN-gamma per 3×10⁴ bulk CD4⁺ T cells upon stimulation with peptide-pulsed PBMCs (3×10⁴), or 1×10⁴ bulk CD4⁺ T cells upon stimulation with peptide-pulsed L-cells (5×10⁴/well) expressing HLA-DR was analyzed. The frequency of cells producing IFN-gamma per 1×10⁵ CTLs upon stimulation with peptide-pulsed T2 cells (2×10⁴/well) or C1R-A2402 cells (2×10⁴/well) was also analyzed. Alternatively, 5×10³ protein-loaded DCs were co-cultured with 2×10⁴ CD4⁺ T cell clones/well. The protein-loaded mature DCs were prepared from positively isolated CD14⁺ cells (day 0) as described previously (Harao M, et al. Int J Cancer 2008; 123: 2616-25.). On day 5, the DCs were cultured in the presence of the recombinant KIF20A (50 micro-g/ml) and OK432. The protein-loaded mature DCs were harvested on day 7, washed and used as stimulator in IFN-gamma ELISPOT assays. […]

B1: KIF20A (60-84) (peptide)
peptide: DSMEKVKVYLRVRPLLPSELERQED
notes: Synthetic long peptide (purity >90%), pulsed on PBMCs, DCs or L-cell transfectants; also called KIF20A (60-84) LP; KIF20A (60-84) peptide
In the case of B1, the binding result is reported as “binds”.
